According to ChEMBL document CHEMBL1128147, “Mechanistic support for the stepwise process for inactivation of class A -lactamases by clavulanate” (Bioorg Med Chem Lett, 1995):

Substrate: O=C(O)[C@H]1C(CCO)O[C@@H]2CC(=O)N21
Description: Km for inactivation of TEM-1 beta-lactamase

B1: Beta-lactamase (Enterobacter cloacae), P05364 (protein)
chain: MMRKSLCCALLLGISCSALATPVSEKQLAEVVANTITPLMKAQSVPGMAVAVIYQGKPHYYTFGKADIAANKPVTPQTLFELGSISKTFTGVLGGDAIARGEISLDDAVTRYWPQLTGKQWQGIRMLDLATYTAGGLPLQVPDEVTDNASLLRFYQNWQPQWKPGTTRLYANASIGLFGALAVKPSGMPYEQAMTTRVLKPLKLDHTWINVPKAEEAHYAWGYRDGKAVRVSPGMLDAQAYGVKTNVQDMANWVMANMAPENVADASLKQGIALAQSRYWRIGSMYQGLGWEMLNWPVEANTVVEGSDSKVALAPLPVAEVNPPAPPVKASWVHKTGSTGGFGSYVAFIPEKQIGIVMLANTSYPNPARVEAAYHILEALQ
  Km: 2.2 µM
